Results taken from US20240315219A1, “ANIMAL MODEL FOR DISEASES ASSOCIATED WITH ABSENCE OR REDUCTION OF SOCIAL DOMINANCE, AND PHARMACEUTICAL COMPOSITION FOR PREVENTING OR TREATING DISEASES” (ADEL, Inc., priority 2021, published 2024).

Experiments:
[1] = system: CRTC3 KO primary astrocytes; assay: Cell shape index (CSI) of astrocytes, GFAP immunocytochemistry; assay type: cell-based, mouse; conditions: AREG 200 ng/ml, vs WT astrocytes
Procedure: Next, to identify localization of CRTC3 in the cellular changes induced in astrocytes, comparison of astrocyte shape was performed between the CRTC3 KO mice and the WT mice. The shape of the cells was observed using GFAP as an astrocyte marker through fluorescent staining according to the method described in Experimental Example 1.4.
To more accurately compare the astrocyte shapes, complexity of the astrocyte shape was determined using the cell shape index (CSI) defined as follows (in the formula, P is a cell's perimeter and A is a cell's area).
Immunocytochemistry was performed as follows. First, a 12 mm coverslip (Marienfeld, Germany) coated with PDL was placed in a 24-well plate, and cells were plated thereon. Then, the cells were fixed with 4% paraformaldehyde (Biosesang, Korea) for 10 minutes. The cells were washed three times with PBS, and then subjected to permeabilization with PBS containing 0.1% Triton X-100 for 5 minutes at room temperature. The cells were washed again three times and blocked with PBS containing 5% bovine serum albumin (BSA) at 37° C. for 30 minutes. The cells were washed three times and incubated with mouse anti-GFAP antibody (Chemicon-Millipore, USA) overnight at 4° C. […] Then, each sample was mounted using a fluorescence mounting solution (DAKO, USA) for imaging.

[2] = system: C57BL/6 mice; assay: Tube dominance test, lowest-ranked mouse in C57BL/6 mouse group; assay type: in vivo; conditions: lowest-ranked C57BL/6 mouse, intracerebroventricular via osmotic pump
Procedure: (§1) The apparatus for the tube dominance test was made of a transparent plastic tube with a length of 30 cm and an inner diameter of 2.5 cm. To allow the mice to adapt to passing through the inside of the tube, the respective mice were trained to pass across the tube alternately on both sides for two or three consecutive days. During the training period, care was taken to ensure that the mice passed through the tube as naturally as possible without causing stress. This test was performed after identifying that all mice could freely pass through the tube without stress.
During the dominance test period, a total of 2 mice, one at each end of the tube, were placed to meet in the middle of the tube. In a case where one mouse pushed the other mouse out of the tube, one (1) winning point was earned. The test was repeated three times. […] For each test, win or loss was determined by winning points.
(§2) First, starting at 1 month of age, the CRTC3 KO mice and the WT mice were housed in one group and raised together for 2 months. […] To determine changes in ranking of the mice in the group, social dominance ranking was evaluated by a tube dominance test daily for 15 days starting at 3 months of age. The respective mice in the group were tested in turn, and dominance ranking of the mice in the group was determined based on their winning points. […]

[3] = system: CRTC3 KO mice; assay: Tube dominance test, CRTC3 KO mice housed with WT mice; assay type: in vivo, mouse
Procedure: as §1
During the dominance test period, a total of 2 mice, one at each end of the tube, were placed to meet in the middle of the tube. In a case where one mouse pushed the other mouse out of the tube, one (1) winning point was earned. The test was repeated three times. […] For each test, win or loss was determined by winning points. […]
as §2

[4] = system: CRTC3 KO mice; assay: Warm spot test; assay type: in vivo, mouse; conditions: ICV osmotic pump, before vs after
Procedure: The warm spot test was performed using the following apparatus and method. The test apparatus was a box with dimensions of 30 cm by 30 cm, and the bottom was kept cold by ice. A fan-shaped heating mat of approximately 3 cm was laid one corner of the bottom to warm only that part of the bottom. In the first test, the mice were placed in a box with all bottom surfaces cold and kept thereon for 30 minutes to get used to the environment. After 30 minutes, the mice were moved to a box with a heating mat on one corner of the bottom, and the time each mouse occupied the bottom surface with the heating mat was measured for 20 minutes. Based on the measured time, each mouse's ranking in the group was determined.
First, starting at 1 month of age, the CRTC3 KO mice and the WT mice were housed in one group and raised together for 2 months. This allowed social ranking to be naturally formed among the mice in the same group. To determine changes in ranking of the mice in the group, social dominance ranking was evaluated by a tube dominance test daily for 15 days starting at 3 months of age. The respective mice in the group were tested in turn, and dominance ranking of the mice in the group was determined based on their winning points. […]

B1: AREG: Recombinant mouse amphiregulin from R&D Systems, SEQ ID NO: 11; EGF receptor ligand (protein, listed as Mus musculus)
chain: SVRVEQVIKPKKNKTEGEKSTEKPKRKKKGGKNGKGRRNKKKKNPCTAKFQNFCIHGECRYIENLEVVTCNCHQDYFGERCGEKSMKTHSEDDKDLSK
modifications: Mouse AREG Protein
notes: EGF receptor ligand
- cell shape index (CSI) [1]: increased a CSI level of the primary astrocytes in the CRTC3 KO mice to that of the WT astrocytes
- cages in which ranking of the lowest-ranked mouse increased after administration [2]: 71%
- cages in which changes (increase) in social dominance ranking were observed after administration ([3]; CRTC3 KO mice with low ranking, housed with WT mice, intracerebroventricular via osmotic pump): 81%
- winning points after vs before administration ([3]; CRTC3 KO mice, ICV osmotic pump): increase in winning points
- social dominance ranking in warm spot test after administration [4]: increased social dominance ranking
- time occupying the warm spot after administration [4]: increase in the time they occupied the warm spot
